From the Human Domainome abundance scans (Beltran et al. 2025)
± gives the uncertainty stated by the source.

B1: Ubiquitin-protein ligase residues 30 to 86; numbered along this chain, Q05086 (parent)
chain: KHLIERYYHQLTEGCGNEACTNEFCASCPTFLRMDNNAAAIKALELYKINAKLCDPH

Variants of: B1
Assay: abundance fitness (aPCA) (normalised: wild type 0, dead -1); higher = more abundant; growth selection in yeast, the domain comes from the species named
Conditions: Homo sapiens

Variant | abundance fitness
KHLIERYYHQLTEGCGNEACTNEVCASCPTFLRMDNNAAAIKALELYKINAKLCDPH | -0.03 ± 0.052
KHLIERYYHQLTEGCGNEACTNEDCASCPTFLRMDNNAAAIKALELYKINAKLCDPH | -0.026 ± 0.08
KHLIERYYHQLTEGCGNEACTNEHCASCPTFLRMDNNAAAIKALELYKINAKLCDPH | 0.028 ± 0.097
KHLIERYYHQLTEGCGNEACTNEQCASCPTFLRMDNNAAAIKALELYKINAKLCDPH | 0.016 ± 0.08
KHLIERYYHQLTEGCGNEACTNEYCASCPTFLRMDNNAAAIKALELYKINAKLCDPH | -0.026 ± 0.086
KHLIERYYHQLTEGCGNEACTNERCASCPTFLRMDNNAAAIKALELYKINAKLCDPH | -0.095 ± 0.049
KHLIERYYHQLTEGCGNEACTNEACASCPTFLRMDNNAAAIKALELYKINAKLCDPH | -0.041 ± 0.056
KHLIERYYHQLTEGCGNEACTNEMCASCPTFLRMDNNAAAIKALELYKINAKLCDPH | -0.031 ± 0.071
KHLIERYYHQLTEGCGNEACTNETCASCPTFLRMDNNAAAIKALELYKINAKLCDPH | -0.018 ± 0.065
KHLIERYYHQLTEGCGNEACTNEICASCPTFLRMDNNAAAIKALELYKINAKLCDPH | -0.024 ± 0.083
KHLIERYYHQLTEGCGNEACTNENCASCPTFLRMDNNAAAIKALELYKINAKLCDPH | -0.017 ± 0.095
KHLIERYYHQLTEGCGNEACTNEGCASCPTFLRMDNNAAAIKALELYKINAKLCDPH | -0.057 ± 0.048
KHLIERYYHQLTEGCGNEACTNEPCASCPTFLRMDNNAAAIKALELYKINAKLCDPH | -0.734 ± 0.088
KHLIERYYHQLTEGCGNEACTNESCASCPTFLRMDNNAAAIKALELYKINAKLCDPH | -0.033 ± 0.056
KHLIERYYHQLTEGCGNEACTNEKCASCPTFLRMDNNAAAIKALELYKINAKLCDPH | -0.041 ± 0.073
KHLIERYYHQLTEGCGNEACTNELCASCPTFLRMDNNAAAIKALELYKINAKLCDPH | -0.016 ± 0.055
KHLIERYYHQLTEGCGNEACTNEECASCPTFLRMDNNAAAIKALELYKINAKLCDPH | -0.057 ± 0.068
KHLIERYYHQLTEGCGNEACTNEWCASCPTFLRMDNNAAAIKALELYKINAKLCDPH | 0.07 ± 0.062
KHLIERYYHQLTEGCGNEACTNEFCASIPTFLRMDNNAAAIKALELYKINAKLCDPH | -0.276 ± 0.095
KHLIERYYHQLTEGCGNEACTNEFCASVPTFLRMDNNAAAIKALELYKINAKLCDPH | -0.151 ± 0.054
KHLIERYYHQLTEGCGNEACTNEFCASGPTFLRMDNNAAAIKALELYKINAKLCDPH | -0.183 ± 0.049
KHLIERYYHQLTEGCGNEACTNEFCASEPTFLRMDNNAAAIKALELYKINAKLCDPH | -0.144 ± 0.062
KHLIERYYHQLTEGCGNEACTNEFCASDPTFLRMDNNAAAIKALELYKINAKLCDPH | -0.171 ± 0.084

Variant | abundance fitness
KHLIERYYHQLTEGCGNEACTNEFCASNPTFLRMDNNAAAIKALELYKINAKLCDPH | -0.006 ± 0.085
KHLIERYYHQLTEGCGNEACTNEFCASAPTFLRMDNNAAAIKALELYKINAKLCDPH | -0.019 ± 0.06
KHLIERYYHQLTEGCGNEACTNEFCASWPTFLRMDNNAAAIKALELYKINAKLCDPH | -0.16 ± 0.055
KHLIERYYHQLTEGCGNEACTNEFCASLPTFLRMDNNAAAIKALELYKINAKLCDPH | -0.217 ± 0.052
KHLIERYYHQLTEGCGNEACTNEFCASQPTFLRMDNNAAAIKALELYKINAKLCDPH | -0.128 ± 0.08
KHLIERYYHQLTEGCGNEACTNEFCASKPTFLRMDNNAAAIKALELYKINAKLCDPH | -0.038 ± 0.075
KHLIERYYHQLTEGCGNEACTNEFCASPPTFLRMDNNAAAIKALELYKINAKLCDPH | -0.475 ± 0.08
KHLIERYYHQLTEGCGNEACTNEFCASTPTFLRMDNNAAAIKALELYKINAKLCDPH | -0.07 ± 0.067
KHLIERYYHQLTEGCGNEACTNEFCASFPTFLRMDNNAAAIKALELYKINAKLCDPH | -0.031 ± 0.075
KHLIERYYHQLTEGCGNEACTNEFCASSPTFLRMDNNAAAIKALELYKINAKLCDPH | -0.064 ± 0.053
KHLIERYYHQLTEGCGNEACTNEFCASRPTFLRMDNNAAAIKALELYKINAKLCDPH | -0.071 ± 0.047
KHLIERYYHQLTEGCGNEACTNEFCASYPTFLRMDNNAAAIKALELYKINAKLCDPH | -0.06 ± 0.061
KHLIERYYHQLTEGCGNEACTNEFCKSCPTFLRMDNNAAAIKALELYKINAKLCDPH | 0.034 ± 0.093
KHLIERYYHQLTEGCGNEACTNEFCPSCPTFLRMDNNAAAIKALELYKINAKLCDPH | -0.876 ± 0.12
KHLIERYYHQLTEGCGNEACTNEFCLSCPTFLRMDNNAAAIKALELYKINAKLCDPH | -0.143 ± 0.055
KHLIERYYHQLTEGCGNEACTNEFCYSCPTFLRMDNNAAAIKALELYKINAKLCDPH | -0.076 ± 0.1
KHLIERYYHQLTEGCGNEACTNEFCCSCPTFLRMDNNAAAIKALELYKINAKLCDPH | -0.053 ± 0.08
KHLIERYYHQLTEGCGNEACTNEFCDSCPTFLRMDNNAAAIKALELYKINAKLCDPH | -0.67 ± 0.09
KHLIERYYHQLTEGCGNEACTNEFCMSCPTFLRMDNNAAAIKALELYKINAKLCDPH | -0.111 ± 0.067
KHLIERYYHQLTEGCGNEACTNEFCRSCPTFLRMDNNAAAIKALELYKINAKLCDPH | -0.096 ± 0.05
KHLIERYYHQLTEGCGNEACTNEFCHSCPTFLRMDNNAAAIKALELYKINAKLCDPH | -0.163 ± 0.13
KHLIERYYHQLTEGCGNEACTNEFCQSCPTFLRMDNNAAAIKALELYKINAKLCDPH | -0.156 ± 0.081
KHLIERYYHQLTEGCGNEACTNEFCISCPTFLRMDNNAAAIKALELYKINAKLCDPH | -0.097 ± 0.094
